From patent publication US20260242735A1 (UNIVERSIT T BASEL, published 2026) come the findings set out here.

The target of one experiment is human CD33 Q24A (human, UniProt P20138 18-364). Briefly: alanine scan, flow cytometry.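 Note: HEK293-T cells transiently expressing single-residue alanine mutants of CD33 (alanine swapped to serine), antibody binding read by fluorescence in duplicate, background-subtracted, expressed relative to wild-type CD33.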 On the technique in general: Flow cytometry measures light scatter and fluorescence of single cells or particles in a stream.
Sequence of human CD33 Q24A (P20138 18-364 Q24A limits assumed): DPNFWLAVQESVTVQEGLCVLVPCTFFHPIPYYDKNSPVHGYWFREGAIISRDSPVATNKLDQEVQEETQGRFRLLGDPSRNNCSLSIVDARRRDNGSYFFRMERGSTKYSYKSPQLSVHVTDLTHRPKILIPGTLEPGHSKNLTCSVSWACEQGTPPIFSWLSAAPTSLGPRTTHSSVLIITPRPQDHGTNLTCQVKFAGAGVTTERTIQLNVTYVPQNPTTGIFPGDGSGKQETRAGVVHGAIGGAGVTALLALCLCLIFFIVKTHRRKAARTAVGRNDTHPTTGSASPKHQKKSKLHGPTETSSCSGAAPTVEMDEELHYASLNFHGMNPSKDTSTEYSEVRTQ
Another experiment concerns the target human CD33 L35A (human, UniProt P20138 18-364). The experiment can be described thus: alanine scan, flow cytometry.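 Note: HEK293-T cells transiently expressing single-residue alanine mutants of CD33 (alanine swapped to serine), antibody binding read by fluorescence in duplicate, background-subtracted, expressed relative to wild-type CD33.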
Another experiment concerns the target human CD33 F43A (human, UniProt P20138 18-364). The experiment can be described thus: alanine scan, flow cytometry.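 Note: HEK293-T cells transiently expressing single-residue alanine mutants of CD33 (alanine swapped to serine), antibody binding read by fluorescence in duplicate, background-subtracted, expressed relative to wild-type CD33.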
In another experiment the target is human CD33 H45A (human, UniProt P20138 18-364). Briefly: alanine scan, flow cytometry.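 Note: HEK293-T cells transiently expressing single-residue alanine mutants of CD33 (alanine swapped to serine), antibody binding read by fluorescence in duplicate, background-subtracted, expressed relative to wild-type CD33.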
Sequence of human CD33 H45A (P20138 18-364 H45A limits assumed): as the sequence (P20138 18-364 Q24A limits assumed) above, with A7Q, H28A counted along it
A further experiment addresses human CD33 N53A (human, UniProt P20138 18-364). The experiment can be described thus: alanine scan, flow cytometry.
The target of a further experiment is human CD33 P55A (human, UniProt P20138 18-364). The experiment can be described thus: alanine scan, flow cytometry.
Sequence of human CD33 P55A (P20138 18-364 P55A limits assumed): as the sequence (P20138 18-364 Q24A limits assumed) above, with A7Q, P38A counted along it
For another experiment, the target named is human CD33 H57A (human, UniProt P20138 18-364). Briefly: alanine scan, flow cytometry.
Sequence of human CD33 H57A (P20138 18-364 H57A limits assumed): as the sequence (P20138 18-364 Q24A limits assumed) above, with A7Q, H40A counted along it
The next experiment concerns the target human CD33 G64A (human, UniProt P20138 18-364). Briefly: alanine scan, flow cytometry.
The target of the next experiment is human CD33 A65S (human, UniProt P20138 18-364). The experiment can be described thus: alanine scan, flow cytometry.
Sequence of human CD33 A65S (P20138 18-364 A65S limits assumed): as the sequence (P20138 18-364 Q24A limits assumed) above, with A7Q, A48S counted along it
In a further experiment the target is human CD33 D70A (human, UniProt P20138 18-364). The experiment can be described thus: alanine scan, flow cytometry.
Sequence of human CD33 D70A (P20138 18-364 D70A limits assumed): as the sequence (P20138 18-364 Q24A limits assumed) above, with A7Q, D53A counted along it
The next experiment deals with human CD33 N76A (human, UniProt P20138 18-364). The experiment can be described thus: alanine scan, flow cytometry.
Sequence of human CD33 N76A (P20138 18-364 N76A limits assumed): as the sequence (P20138 18-364 Q24A limits assumed) above, with A7Q, N59A counted along it
The next experiment deals with human CD33 V82A (human, UniProt P20138 18-364). The experiment can be described thus: alanine scan, flow cytometry.
Sequence of human CD33 V82A (P20138 18-364 V82A limits assumed): as the sequence (P20138 18-364 Q24A limits assumed) above, with A7Q, V65A counted along it
A further experiment deals with human CD33 F21A (human, UniProt P20138 18-364). The experiment can be described thus: alanine scan, flow cytometry.
Sequence of human CD33 F21A (P20138 18-364 F21A limits assumed): as the sequence (P20138 18-364 Q24A limits assumed) above, with F4A, A7Q counted along it
Another experiment concerns the target human CD33 variant I47E (human, UniProt P20138 18-364). The experiment can be described thus: flow cytometry, IgG on cells expressing the mutant.
Another experiment concerns the target human CD33 variant P48V (human, UniProt P20138 18-364). Briefly: flow cytometry, IgG on cells expressing the mutant.
The target in a further experiment is human CD33 variant P48Y (human, UniProt P20138 18-364). The experiment can be described thus: flow cytometry, IgG on cells expressing the mutant.
The next experiment addresses human CD33 variant P48W (human, UniProt P20138 18-364). Briefly: flow cytometry, IgG on cells expressing the mutant.
In a further experiment the target is human CD33 variant P48N (human, UniProt P20138 18-364). The experiment can be described thus: flow cytometry, IgG on cells expressing the mutant.
Another experiment concerns the target human CD33 variant P48Q (human, UniProt P20138 18-364). The experiment can be described thus: flow cytometry, IgG on cells expressing the mutant.
The next experiment deals with human CD33 variant Y49D (human, UniProt P20138 18-364). Briefly: flow cytometry, IgG on cells expressing the mutant.
The target of a further experiment is human CD33 variant Y49C (human, UniProt P20138 18-364). Briefly: flow cytometry, IgG on cells expressing the mutant.
The target in the next experiment is human CD33 variant Y50N (human, UniProt P20138 18-364). The experiment can be described thus: flow cytometry, IgG on cells expressing the mutant.
In a further experiment the target is human CD33 variant Y50R (human, UniProt P20138 18-364). Briefly: flow cytometry, IgG on cells expressing the mutant.
A further experiment concerns the target human CD33 variant Y50G (human, UniProt P20138 18-364). Briefly: flow cytometry, IgG on cells expressing the mutant.
The next experiment deals with human CD33 variant D51K (human, UniProt P20138 18-364). Briefly: flow cytometry, IgG on cells expressing the mutant.
The target in a further experiment is human CD33 variant D51N (human, UniProt P20138 18-364). Briefly: flow cytometry, IgG on cells expressing the mutant.
Sequence of human CD33 variant D51N (P20138 18-364 D51N limits assumed): as the sequence (P20138 18-364 Q24A limits assumed) above, with A7Q, D34N counted along it
Another experiment has as its target human CD33 variant K52G (human, UniProt P20138 18-364). The experiment can be described thus: flow cytometry, IgG on cells expressing the mutant.
A further experiment has as its target human CD33 variant K52F (human, UniProt P20138 18-364). The experiment can be described thus: flow cytometry, IgG on cells expressing the mutant.
The target of another experiment is human CD33 variant I47L (human, UniProt P20138 18-364). Briefly: flow cytometry, IgG on cells expressing the mutant.
Another experiment deals with human CD33 variant K52D (human, UniProt P20138 18-364). Briefly: flow cytometry, IgG on cells expressing the mutant.
In a further experiment the target is human CD33 variant K52T (human, UniProt P20138 18-364). The experiment can be described thus: flow cytometry, IgG on cells expressing the mutant.
For a further experiment, the target named is human CD33 variant V56R (human, UniProt P20138 18-364). Briefly: flow cytometry, IgG on cells expressing the mutant.
The target of a further experiment is human CD33 variant R122I (human, UniProt P20138 18-364). Briefly: flow cytometry, IgG on cells expressing the mutant.
The next experiment concerns the target human CD33 variant R122F (human, UniProt P20138 18-364). Briefly: flow cytometry, IgG on cells expressing the mutant.
The next experiment concerns the target human CD33 variant R122T (human, UniProt P20138 18-364). Briefly: flow cytometry, IgG on cells expressing the mutant.
The target of the next experiment is human CD33 variant I47Y (human, UniProt P20138 18-364). The experiment can be described thus: flow cytometry, IgG on cells expressing the mutant.
The target in the next experiment is human CD33 variant I47W (human, UniProt P20138 18-364). The experiment can be described thus: flow cytometry, IgG on cells expressing the mutant.

Sequence of human CD33 L35A (P20138 18-364 L35A limits assumed): as the sequence (P20138 18-364 Q24A limits assumed) above, with A7Q, L18A counted along it
Sequence of human CD33 F43A (P20138 18-364 F43A limits assumed): as the sequence (P20138 18-364 Q24A limits assumed) above, with A7Q, F26A counted along it
Sequence of human CD33 N53A (P20138 18-364 N53A limits assumed): as the sequence (P20138 18-364 Q24A limits assumed) above, with A7Q, N36A counted along it
Sequence of human CD33 G64A (P20138 18-364 G64A limits assumed): as the sequence (P20138 18-364 Q24A limits assumed) above, with A7Q, G47A counted along it
Protocol for human CD33 A65S: (§1) An alanine scan on human CD33 was performed to the determine the residues on CD33 that are involved in binding to the antibodies investigated. […] Briefly, a mutation library of CD33 was created by high-throughput, site-directed mutagenesis. Each residue was individually mutated to alanine, with alanine codons mutated to serine. The mutant library was arrayed in 384-well microplates and transiently transfected into HEK293-T. Following transfection, cells were incubated with the indicated antibodies (IgG or Fab) at concentrations pre-determined using an independent immunofluorescence titration curve on wild type CD33. […] Binding of each antibody to each mutant clone was determined in duplicates. For each point, background fluorescence was subtracted from the raw data, which were then normalized to antibody reactivity with wild type CD33.
(§2) Critical residues for antibody binding (outlined in dark grey) were residues whose mutations led to a binding of the test Abs of less than 20%. Additional secondary residues (outlined in light grey) were identified that led to a binding of the test Abs of between 20 and 40% as compared to the wild type CD33.
Protocol for human CD33 D70A: as §1, §2
Protocol for human CD33 F21A: as §1, §2
Protocol for human CD33 F43A: as §1, §2
Protocol for human CD33 G64A: as §1, §2
Protocol for human CD33 H45A: as §1, §2
Protocol for human CD33 H57A: as §1, §2
Protocol for human CD33 L35A: as §1, §2
Protocol for human CD33 N53A: as §1, §2
Protocol for human CD33 N76A: as §1, §2
Protocol for human CD33 P55A: as §1, §2
Protocol for human CD33 Q24A: as §1, §2
Protocol for human CD33 V82A: as §1, §2
Protocol for human CD33 variant D51K: as §1
(§3) Antibodies were screened for binding to the human CD33 variants in IgG format. […] For each mutation, background fluorescence was subtracted from the raw data, which were then normalized to antibody reactivity with wild-type CD33.
Protocol for human CD33 variant D51N: as §1, §3
Protocol for human CD33 variant I47E: as §1, §3
Protocol for human CD33 variant I47L: as §1, §3
Protocol for human CD33 variant I47W: as §1, §3
Protocol for human CD33 variant I47Y: as §1, §3
Protocol for human CD33 variant K52D: as §1, §3
Protocol for human CD33 variant K52F: as §1, §3
Protocol for human CD33 variant K52G: as §1, §3
Protocol for human CD33 variant K52T: as §1, §3
Protocol for human CD33 variant P48N: as §1, §3
Protocol for human CD33 variant P48Q: as §1, §3
Protocol for human CD33 variant P48V: as §1, §3
Protocol for human CD33 variant P48W: as §1, §3
Protocol for human CD33 variant P48Y: as §1, §3
Protocol for human CD33 variant R122F: as §1, §3
Protocol for human CD33 variant R122I: as §1, §3
Protocol for human CD33 variant R122T: as §1, §3
Protocol for human CD33 variant V56R: as §1, §3
Protocol for human CD33 variant Y49C: as §1, §3
Protocol for human CD33 variant Y49D: as §1, §3
Protocol for human CD33 variant Y50G: as §1, §3
Protocol for human CD33 variant Y50N: as §1, §3
Protocol for human CD33 variant Y50R: as §1, §3

B1: Refmab #1 (antibody, V domains shown)
VH: EVQLVQSGAEVKKPGSSVKVSCKASGYTITDSNIHWVRQAPGQSLEWIGYIYPYNGGTDYNQKFKNRATLTVDNPTNTAYMELSSLRSEDTAFYYCVNGNPWLAYWGQGTLVTVSS
VL: DIQLTQSPSTLSASVGDRVTITCRASESLDNYGIRFLTWFQQKPGKAPKLLMYAASNQGSGVPSRFSGSGSGTEFTLTISSLQPDDFATYYCQQTKEVPWSFGQGTKVEVK
notes: Full-length format is human IgG1 (Absolute Antibody Ab00283-10.0); The alanine scan used IgG or Fab; also called hP67.6
On to B1, for which the “Mean % WT Binding” value in the experiment with human CD33 Q24A was found to be 74.1 % WT; with human CD33 L35A it was 89.1 % WT; in the experiment with human CD33 F43A, 66.3 % WT; with human CD33 H45A it was 38.7 % WT; with human CD33 N53A it was 94.7 % WT; with human CD33 P55A, 98.8 % WT. Besides, the “Mean % WT Binding” value in the experiment with human CD33 H57A came to 78.2 % WT; with human CD33 G64A, 90.6 % WT; with human CD33 A65S, 88.5 % WT; with human CD33 D70A, 81.3 % WT; with human CD33 N76A, 61.8 % WT; with human CD33 V82A, 99.6 % WT. In addition, the “Mean % WT Binding” value with human CD33 F21A is 0.4 % WT.

B2: Refmab #2 (antibody, V domains shown)
VH: QVQLVQSGAEVKKPGSSVKVSCKASGGTFSDYAISWVRQAPGQGLEWMGRIIPILGVADYAQKFQGRVTITADKSTRTAYMELSSLRSEDTAVYYCARNWADAFDIWGQGTMVTVSS
VL: DIQLTQSPSSLSASVGDRVTITCRASQGISSVLAWYQQKPGKAPKLLIYDASSLESGVPSRFSGSGSGTDFTLTISSLQPEDFATYYCQQFDSSITFGQGTKLEIK
notes: Full-length format is human IgG1 Fc silent (PG-LALA); The alanine scan used IgG or Fab
Turning to B2, the “Mean % WT Binding” value is 103 % WT with human CD33 Q24A; 119 % WT with human CD33 L35A; 10.6 % WT in the experiment with human CD33 F43A; 73.6 % WT in the experiment with human CD33 H45A; 96 % WT in the experiment with human CD33 N53A; 120 % WT with human CD33 P55A. Moreover, the “Mean % WT Binding” value with human CD33 H57A was determined as 112 % WT; with human CD33 G64A it was 114 % WT; with human CD33 A65S, 112 % WT; in the experiment with human CD33 D70A, 110 % WT; with human CD33 N76A, 106 % WT; with human CD33 V82A it was 116 % WT. Also, in the experiment with human CD33 F21A, the “Mean % WT Binding” value worked out at 120 % WT.

B3: Refmab #2 (antibody, human IgG1, V domains shown)
VH: QVQLVQSGAEVKKPGSSVKVSCKASGGTFSDYAISWVRQAPGQGLEWMGRIIPILGVADYAQKFQGRVTITADKSTRTAYMELSSLRSEDTAVYYCARNWADAFDIWGQGTMVTVSS
VL: DIQLTQSPSSLSASVGDRVTITCRASQGISSVLAWYQQKPGKAPKLLIYDASSLESGVPSRFSGSGSGTDFTLTISSLQPEDFATYYCQQFDSSITFGQGTKLEIK
notes: Tested in IgG format; human IgG1 Fc silent (PG-LALA)
For the molecule B3, the “Mean % WT Binding” value in the experiment with human CD33 variant I47E is 0.5 % of WT; with human CD33 variant P48V, 79.5 % of WT; in the experiment with human CD33 variant P48Y it was 21.6 % of WT; in the experiment with human CD33 variant P48W, 68.8 % of WT; with human CD33 variant P48N, 95.2 % of WT; with human CD33 variant P48Q, 106 % of WT. Besides, the “Mean % WT Binding” value in the experiment with human CD33 variant Y49D was 1.4 % of WT; with human CD33 variant Y49C it was 3.2 % of WT; with human CD33 variant Y50N, 108 % of WT; with human CD33 variant Y50R it was 109 % of WT; in the experiment with human CD33 variant Y50G, 104 % of WT; with human CD33 variant D51K, 2.7 % of WT. In addition, the “Mean % WT Binding” value with human CD33 variant D51N is 96.7 % of WT; with human CD33 variant K52G, 25.4 % of WT; with human CD33 variant K52F it was 3.9 % of WT; with human CD33 variant I47L, 2.8 % of WT; with human CD33 variant K52D, 5.3 % of WT; with human CD33 variant K52T it was 120 % of WT. Moreover, the “Mean % WT Binding” value is 107 % of WT with human CD33 variant V56R; 1.1 % of WT with human CD33 variant R122I; 1.2 % of WT with human CD33 variant R122F; 1.5 % of WT in the experiment with human CD33 variant R122T; 1.4 % of WT with human CD33 variant I47Y; 0.6 % of WT with human CD33 variant I47W.

B4: Refmab #3 (antibody, V domains shown)
VH: QVQLVQSGAEVKKPGSSVKVSCKASGYTFTDYNMHWVRQAPGQGLEWIGYIYPYNGGTGYNQKFKSKATITADESTNTAYMELSSLRSEDTAVYYCARGRPAMDYWGQGTLVTVSS
VL: DIQMTQSPSSLSASVGDRVTITCRASESVDNYGISFMNWFQQKPGKAPKLLIYAASNQGSGVPSRFSGSGSGTDFTLTISSLQPDDFATYYCQQSKEVPWTFGQGTKVEIK
notes: as for B2
For the molecule B4, the “Mean % WT Binding” value came out at 101 % WT with human CD33 Q24A; 102 % WT with human CD33 L35A; 49.3 % WT with human CD33 F43A; 55.1 % WT with human CD33 H45A; 116 % WT with human CD33 N53A; 142 % WT with human CD33 P55A. For the same molecule, the “Mean % WT Binding” value with human CD33 H57A came out at 182 % WT; in the experiment with human CD33 G64A, 96.6 % WT; with human CD33 A65S it was 143 % WT; in the experiment with human CD33 D70A it was 131 % WT; in the experiment with human CD33 N76A, 148 % WT; with human CD33 V82A it was 141 % WT. The “Mean % WT Binding” value in the experiment with human CD33 F21A turned out to be 13.6 % WT.

B5: Refmab #4 (antibody, V domains shown)
VH: QVQLVQSGAEVKKPGESVKVSCKASGYTFTNYGMNWVKQAPGQGLEWMGWINTYTGEPTYADKFQGRVTMTTDTSTSTAYMEIRNLGGDDTAVYYCARWSWSDGYYVYFDYWGQGTSVTVSS
VL: DIVMTQSPDSLTVSLGERTTINCKSSQSVLDSSTNKNSLAWYQQKPGQPPKLLLSWASTRESGIPDRFSGSGSGTDFTLTIDSPQPEDSATYYCQQSAHFPITFGQGTRLEIK
notes: as for B2
Regarding B5, the “Mean % WT Binding” value was 68.3 % WT with human CD33 Q24A; 94.5 % WT with human CD33 L35A; 7.8 % WT with human CD33 F43A; 134 % WT with human CD33 H45A; 69 % WT with human CD33 N53A; 95.4 % WT in the experiment with human CD33 P55A. Besides, the “Mean % WT Binding” value came to 67.3 % WT with human CD33 H57A; 93.9 % WT with human CD33 G64A; 84 % WT with human CD33 A65S; 82.7 % WT in the experiment with human CD33 D70A; 34.7 % WT with human CD33 N76A; 144 % WT with human CD33 V82A. For the same molecule, the “Mean % WT Binding” value in the experiment with human CD33 F21A is 43.6 % WT.
